Laboratory results published in article PMC3531251, “Yeast importin-β is required for nuclear import of the Mig2 repressor” (BMC Cell Biology, 2012).

T1: Kap60 (importin-α), purified from E. coli (S. cerevisiae, UniProt Q02821 1-542)
T1 construct: also called purified Kap60; GST-Kap60 (before thrombin); source: E. coli BL21(DE3) pLysS, purified on glutathione-Sepharose, released with thrombin
T1 sequence (looked up): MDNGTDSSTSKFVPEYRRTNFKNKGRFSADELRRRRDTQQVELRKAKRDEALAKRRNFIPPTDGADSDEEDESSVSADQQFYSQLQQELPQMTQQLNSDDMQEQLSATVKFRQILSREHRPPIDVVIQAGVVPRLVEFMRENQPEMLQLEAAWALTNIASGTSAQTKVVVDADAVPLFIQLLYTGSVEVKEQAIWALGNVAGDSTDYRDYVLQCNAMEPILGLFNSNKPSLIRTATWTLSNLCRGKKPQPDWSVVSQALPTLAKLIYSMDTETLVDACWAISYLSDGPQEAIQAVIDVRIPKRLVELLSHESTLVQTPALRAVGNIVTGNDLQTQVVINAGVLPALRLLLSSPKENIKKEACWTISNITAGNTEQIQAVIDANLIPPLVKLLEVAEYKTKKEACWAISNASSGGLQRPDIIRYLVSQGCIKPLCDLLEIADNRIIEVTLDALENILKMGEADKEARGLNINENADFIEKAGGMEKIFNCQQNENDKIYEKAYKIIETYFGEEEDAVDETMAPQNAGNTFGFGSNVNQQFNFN


Molecular target: T1, Kap60 (importin-α), purified from E. …
Experiment: pull-down; GST fusion on glutathione-Sepharose incubated with purified Kap60 and/or Kap95 (thrombin-released), no Gsp1; 1 h at 4°C in PBS; blot with anti-Kap60 or anti-Kap95
Conditions: both partners purified

| Binder | binding result |
| --- | --- |
| GST-Mig2 fusion protein (natural protein, Mig2 of Saccharomyces cerevisiae, PCR fragment cloned in the SalI site of pGEX-4T-1; also called Mig2-GST; pGEX/MIG2; source: E. coli BL21(DE3) pLysS, purified on glutathione-Sepharose) not shown | binds |
| GST-Mig2nls1 fusion protein (natural protein, Held on glutathione-Sepharose beads in the pull-downs; also called Mig2nls1-GST; MIG2K32AK33AR37A; source: E. coli BL21(DE3) pLysS, purified on glutathione-Sepharose) not shown | binds |
